Test results from patent publication US20190241657A1.

Target: human CD3epsilon/delta-Fc fusion protein (heterodimer of CD3epsilon and CD3delta extracellular domains fused to human IgG Fc) (human) (UniProt P04234)
Assay: Biacore

Sequence of human CD3epsilon/delta-Fc fusion protein (heterodimer of CD3epsilon and CD3delta extracellular domains fused to human IgG Fc) (human) (chain, as listed by the source mutant, chain 1 of 2): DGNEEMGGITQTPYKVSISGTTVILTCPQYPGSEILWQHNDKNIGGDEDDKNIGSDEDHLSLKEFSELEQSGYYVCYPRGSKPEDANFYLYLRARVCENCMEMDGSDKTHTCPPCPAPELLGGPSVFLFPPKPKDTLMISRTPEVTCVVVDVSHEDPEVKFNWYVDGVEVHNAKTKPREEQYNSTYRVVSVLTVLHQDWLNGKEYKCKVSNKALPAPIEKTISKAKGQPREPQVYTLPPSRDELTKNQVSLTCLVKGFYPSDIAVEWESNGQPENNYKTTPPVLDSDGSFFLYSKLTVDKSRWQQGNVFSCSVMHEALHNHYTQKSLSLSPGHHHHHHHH
Sequence of human CD3epsilon/delta-Fc fusion protein (heterodimer of CD3epsilon and CD3delta extracellular domains fused to human IgG Fc) (human) (P04234 22-105, stated change not applied, chain 2 of 2): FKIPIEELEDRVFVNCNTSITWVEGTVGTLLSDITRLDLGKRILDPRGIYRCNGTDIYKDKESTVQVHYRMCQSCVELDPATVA

Single chain antibody DART format MGD006 (CD123xCD3 bi-specific diabody) (bispecific antibody)
Kd: 9 nM
